Assay results as given in the supplement of paper PMC9112550, “Optimization of the antimicrobial peptide Bac7 by deep mutational scanning” (BMC Biology, 2022).

System: Escherichia coli TOP10
Assay: shrunken log2 fold change of peptide-encoding DNA abundance (4.5 h post-induction vs induction); higher = less antimicrobial activity (less host growth inhibition)
Details: time post-induction: 4.5 h; library: site-saturation at positions 5, 18, 19, 20
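Further: peptides expressed intracellularly from a pBAD plasmid library in pooled LB shake-flask culture, induced with 0.3% L-arabinose, DNA abundance read by NGS, three biological replicates, DESeq2 with apeglm shrinkage.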

Sequence | shrunken log2 fold change
RRIRFRPPRLPRPRPRPKHSPRP | -0.434
RRIRGRPPRLPRPRPRPEAKPRP | 1.76
RRIRVRPPRLPRPRPRPSSWPRP | -0.062
RRIRTRPPRLPRPRPRPFHDPRP | 0.0356
RRIRIRPPRLPRPRPRPHEHPRP | -0.405
RRIRRRPPRLPRPRPRPNWLPRP | 0.121
RRIRIRPPRLPRPRPRPDKEPRP | -0.0239
RRIRKRPPRLPRPRPRPTYIPRP | -0.154
RRIRYRPPRLPRPRPRPGMPPRP | -0.403
RRIRKRPPRLPRPRPRPHIQPRP | -0.224
RRIRGRPPRLPRPRPRPKPQPRP | 0.543
RRIRHRPPRLPRPRPRPWCHPRP | -0.00107
RRIRTRPPRLPRPRPRPREPPRP | 1.21
RRIRTRPPRLPRPRPRPAQTPRP | 0.712
RRIRHRPPRLPRPRPRPSWQPRP | 0.0601
RRIRERPPRLPRPRPRPLAHPRP | -0.368
RRIRWRPPRLPRPRPRPHQPPRP | 0.145
RRIRSRPPRLPRPRPRPRVYPRP | -0.348
RRIRKRPPRLPRPRPRPGSSPRP | -0.0653
RRIRSRPPRLPRPRPRPDKYPRP | -0.845
RRIRARPPRLPRPRPRPNPYPRP | -0.115
RRIRIRPPRLPRPRPRPRPPPRP | 0.635
RRIRSRPPRLPRPRPRPCVVPRP | -0.266
RRIRIRPPRLPRPRPRPCWKPRP | 0.00408
RRIRWRPPRLPRPRPRPWDNPRP | -0.00804
RRIRLRPPRLPRPRPRPCYFPRP | -0.232
RRIRHRPPRLPRPRPRPLRCPRP | 0.0647

Sequence | shrunken log2 fold change
RRIRIRPPRLPRPRPRPTSTPRP | -0.0986
RRIRWRPPRLPRPRPRPYGHPRP | -0.478
RRIRVRPPRLPRPRPRPTQVPRP | 0.103
RRIRNRPPRLPRPRPRPCTNPRP | 0.00408
RRIRPRPPRLPRPRPRPHTGPRP | -0.0698
RRIRERPPRLPRPRPRPDQWPRP | 0.189
RRIRQRPPRLPRPRPRPRSVPRP | 0.235
RRIRNRPPRLPRPRPRPHAYPRP | 0.00658
RRIRFRPPRLPRPRPRPDMKPRP | -0.25
RRIRARPPRLPRPRPRPIFAPRP | 0.555
RRIRIRPPRLPRPRPRPSILPRP | -0.878
RRIRKRPPRLPRPRPRPNSYPRP | 0.141
RRIRCRPPRLPRPRPRPLQQPRP | 0.178
RRIRGRPPRLPRPRPRPRILPRP | 0.404
RRIRRRPPRLPRPRPRPKRVPRP | 0.298
RRIRVRPPRLPRPRPRPPFVPRP | 0.0393
RRIRTRPPRLPRPRPRPVDSPRP | 0.0391
RRIRWRPPRLPRPRPRPMTNPRP | -0.0531
RRIRYRPPRLPRPRPRPAESPRP | -0.00136
RRIRYRPPRLPRPRPRPHEEPRP | -0.018
RRIRFRPPRLPRPRPRPSNNPRP | -0.702
RRIRLRPPRLPRPRPRPRLDPRP | 0.363
RRIRARPPRLPRPRPRPRPEPRP | 0.686
RRIRYRPPRLPRPRPRPETLPRP | -0.0879
RRIRYRPPRLPRPRPRPYSEPRP | -0.199
RRIRVRPPRLPRPRPRPWPLPRP | -0.183
RRIRYRPPRLPRPRPRPFAWPRP | -0.0365
